From paper PMC8916587, “Endoglin Wild Type and Variants Associated With Hereditary Hemorrhagic Telangiectasia Type 1 Undergo Distinct Cellular Degradation Pathways” (Frontiers in Molecular Biosciences, 2022)
Numbering of substitutions follows the chain as printed. Numbers in names are those of the source.

Biological target: the molecule itself
Assay: non-reducing SDS-PAGE with Western blot; lysates of stably transfected HEK293 cells denatured in sample buffer with or without a reducing agent; blotted with anti-HA

B1: HA-tagged WT Endoglin (receptor, UniProt P17813 26-658, looked up)
chain: ETVHCDLQPVGPERGEVTYTTSQVSKGCVAQAPNAILEVHVLFLEFPTGPSQLELTLQASKQNGTWPREVLLVLSVNSSVFLHLQALGIPLHLAYNSSLVTFQEPPGVNTTELPSFPKTQILEWAAERGPITSAAELNDPQSILLRLGQAQGSLSFCMLEASQDMGRTLEWRPRTPALVRGCHLEGVAGHKEAHILRVLPGHSAGPRTVTVKVELSCAPGDLDAVLILQGPPYVSWLIDANHNMQIWTTGEYSFKIFPEKNIRGFKLPDTPQGLLGEARMLNASIVASFVELPLASIVSLHASSCGGRLQTSPAPIQTTPPKDTCSPELLMSLIQTKCADDAMTLVLKKELVAHLKCTITGLTFWDPSCEAEDRGDKFVLRSAYSSCGMQVSASMISNEAVVNILSSSSPQRKKVHCLNMDSLSFQLGLYLSPHFLQASNTIEPGQQSFVQVRVSPSVSEFLLQLDSCHLDLGPEGGTVELIQGRAAKGNCVSLLSPSPEGDPRFSFLLHFYTVPIPKTGTLSCTVALRPKTGSQDQEVHRTVFMRLNIISPDLSGCTSKGLVLPAVLGITFGAFLIGALLTAALWYIYSHTRSPSKREPVVAVAAPASSESSSTNHSIGSTQSTPCSTSSMA
notes: Endoglin (CD105), wild type, encoded by ENG; Seen as a dimer on a non-reducing gel; also called Endoglin WT; ENG-WT; source: HEK293, stably transfected (pcDNA3.0), in lysate
stoichiometry N: 2

B2: HA-tagged Endoglin mutant variant P165L (receptor, UniProt P17813 26-658, looked up)
chain: B1 chain with P140L
notes: Endoglin (CD105) with the HHT1 disease-causing missense variant P165L, made by site directed mutagenesis; Retained in the ER; also called ENG-P165L; p; P165L; source: HEK293, stably transfected (pcDNA3.0), in lysate
stoichiometry N: 2

B3: HA-tagged Endoglin mutant variant V105D (receptor, UniProt P17813 26-658, looked up)
chain: B1 chain with V80D
notes: Endoglin (CD105) with the HHT1 disease-causing missense variant V105D, made by site directed mutagenesis; Retained in the ER; also called ENG-V105D; p; V105D; source: HEK293, stably transfected (pcDNA3.0), in lysate
stoichiometry N: 2
